What was measured:
[1] = target: T1, GST-fused N1 antigen (N1 epitope of H1N1 influenza virus) (Influenza A virus H1N1, neuraminidase …); experiment: SPR; Biacore 3000, CM5 chip; […], PBS running buffer; […]; details: both partners purified
T1 construct: not shown: GST, N-terminal, kept
T1 chain: CRDNWHGSNRPW

[2] = target: T2, GST-fused PreS2 antigen (PreS2 epitope of HBV) (Hepatitis B virus, PreS2 epitope …); experiment: as above; details: both partners purified
T2 construct: also called GST-PreS2; PreS2 of HBV; not shown: GST, N-terminal, kept
T2 chain: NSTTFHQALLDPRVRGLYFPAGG

B1: S5 scFv (scFv, V domains shown)
VH: EVQLLESGGGLVQPGGSLRLSCAASGFTFSNYCIGWVRQAPGKGLEWVSPINSNNSNTEYADSVKGRFTISRDNSKNTLYLQMNSLRAEDTAVYYCARCSLPQISHFDYWGQGTLVTVSS
VL: EIVLTQSPGTLSLSPGERATLSCRASQNVSNYVSWYQQKPGQAPRLLIYDISTLQTGIPDRFSGSGSGTDFTLTISRLEPEDFAVYYCPKRVSTGGTFGQGTKVEIK
B1 was tested, and the Kd [1] was 11 nM.

B2: SP1 scFv (scFv, V domains shown)
VH: EVQLLESGGGLVQPGGSLRLSCAASGFTFSDYAMYWVRQAPGKGLEWVSGIDINGSNTKYADSVKGRFTISRDNSKNTLYLQMNSLRAEDTAVYYCARKYNHNNHQNTTNFDYWGQGTLVTVSS
VL: EIVLTQSPGTLSLSPGERATLSCRASQNSSSYLSWYQQKPGQAPRLLIYYTSKLESGIPDRFSGSGSGTDFTLTISRLEPEDFAVYYCETVPSLLGVFGQGTKVEIK
notes: also called clone SP1; anti-PreS2 SP1 scFv
Work on B2 yielded a Kd [2] of 11.5 nM.

Reference: publication PMC4193741 (PLoS ONE, 2014)
